Legend:
[1] = Conjugation of anti-CD98 mAbs with Bcl-xL inhibitor synthons (precipitation, DAR, recovery, aggregation); details: Method E
Method: Method A. A solution of BOND-BREAKER tris(2-carboxyethyl)phosphine (TCEP) solution (10 mM, 0.017 mL) was added to a solution of antibody (10 mg/mL, […]) preheated to 37° C. The reaction mixture was kept at 37° C. for 1 hour. The solution of reduced antibody was added to a solution of synthon (3.3 mM, 0.160 mL in DMSO) and gently mixed for 30 minutes. The reaction solution was loaded onto a desalting column (PD10, washed with DPBS 3x before use), followed by DPBS (1.6 mL) and eluted with additional DPBS (3 mL). The purified ADC solution was filtered through a 0.2 micron, low protein-binding 13 mm syringe-filter and stored at 4° C.
Method E. A solution of BOND-BREAKER tris(2-carboxyethyl)phosphine (TCEP) solution (10 mM, 0.017 mL) was added to the solution of antibody (10 mg/mL, 1 mL) at room temperature. The reaction mixture was heated to 37° C. for 75 minutes. The solution of reduced antibody cooled to room temperature and was added to a solution of synthon (10 mM, 0.040 mL in DMSO) followed by addition of boric buffer (0.1 mL, 1M, pH 8). The reaction solution was let to stand for 3 days at room temperature, loaded onto a desalting column (PD10, washed with DPBS 3×5 mL before use), followed by DPBS (1.6 mL) and eluted with additional DPBS (3 mL). The purified ADC solution was filtered through a 0.2 micron, low protein-binding 13 mm syringe-filter and stored at 4° C.

[2] = target: T1, human CD98 ECD (Homo sapiens, UniProt P08195); experiment: Biacore surface plasmon resonance binding kinetics (anti-Fc capture); details: huCD98 ECD
T1 construct: Human CD98 ECD with C-terminal His-tag
T1 sequence (P08195 with tags, fused parts or gaps): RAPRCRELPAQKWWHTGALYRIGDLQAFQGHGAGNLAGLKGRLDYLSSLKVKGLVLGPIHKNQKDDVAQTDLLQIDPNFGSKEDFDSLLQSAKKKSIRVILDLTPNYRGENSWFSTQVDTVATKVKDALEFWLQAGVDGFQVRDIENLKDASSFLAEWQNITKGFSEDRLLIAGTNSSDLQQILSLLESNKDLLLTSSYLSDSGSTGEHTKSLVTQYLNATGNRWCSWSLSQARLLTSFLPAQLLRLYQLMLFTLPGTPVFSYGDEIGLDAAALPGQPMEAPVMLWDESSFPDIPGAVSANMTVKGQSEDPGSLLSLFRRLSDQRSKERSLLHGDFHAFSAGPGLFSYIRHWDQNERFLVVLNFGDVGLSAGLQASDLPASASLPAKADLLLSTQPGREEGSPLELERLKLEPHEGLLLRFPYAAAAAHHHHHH
Method: (§1) The binding kinetics of these purified mouse and rat monoclonal anti-CD98 antibodies for purified recombinant CD98 protein (extracellular domain, ECD) were determined by surface plasmon resonance-based measurements made on Biacore T100/T200 instruments (GE Healthcare, Piscataway, N.J.) at 25° C. using an anti-Fc capture assay approach. Binding kinetic measurements were made in the assay buffer HBS-EP+: 10 mM Hepes, pH 7.4, 150 mM NaCl, 3 mM EDTA, 0.05% Tween 20). For example, approximately 8000 RU of anti-Fc (species specific) polyclonal antibody (Thermo Fisher Scientific Inc., Rockford, Ill.) diluted in 10 mM sodium acetate (pH 4.5) was directly immobilized across a CM5 research grade biosensor chip using a standard amine coupling kit according to manufacturer's instructions and procedures at 25 μg/ml. Unreacted moieties on the biosensor surface were blocked with ethanolamine. The test antibody to be captured as a ligand was diluted in running buffer to ˜0.5 μg/mL and injected over anti-Fc surface at a flow rate of 10 μL/min. CD98 binding and dissociation were observed under a continuous flow rate of 80 μL/min. Human and cynomolgus monkey CD98 ECDs, both with a C-terminal His-tag, are used for this study (Table 3). After each cycle the anti-Fc capture surface was regenerated using 10 mM Glycine-HCl, pH 1.5. During the assay, all measurements were referenced against the capture surface alone (i.e., with no captured test antibody) and buffer-only injections (no antigen) were used for double referencing. For kinetic analysis, rate equations derived from the 1:1 Langmuir binding model were fitted simultaneously, globally and with mass transfer term included to multiple referenced antigen binding curves using Biacore T100/T200 Evaluation software.
(§2) The in vitro binding activities of the recombinant anti-CD98 chimeric mAbs were measured against both recombinant CD98 extracellular domain proteins (ECDs) and CD98-expressing cells. Briefly, binding kinetics of anti-CD98 chimera mAbs for human and cynomolgus CD98 ECDs were determined by surface plasmon resonance-based measurements as described in Example 4. Table 10 reported the association and dissociation rate constants for CD98 binding, ka (M^−1 s^−1) and kd (s^−1), and the equilibrium dissociation constant KD (M) of the interaction between antibodies and the target antigen. Binding of anti-CD98 chimera mAbs for CD98 on cell surface was evaluated by flow cytometry against CHO-K1 cell line stably transfected to express human CD98 and 3T12 cell line stably transfected to express cynomolgus monkey CD98.
(§3) The binding kinetics of the recombinant anti-CD98 chimeric antibodies for purified recombinant CD98 protein (extracellular domain, ECD) were determined by surface plasmon resonance-based measurements, as described in the Example 4.

[3] = test system: cynomolgus monkey CD98 ECD; experiment: as above; details: cyCD98 ECD
Chain of cynomolgus monkey CD98 ECD (as listed by the source): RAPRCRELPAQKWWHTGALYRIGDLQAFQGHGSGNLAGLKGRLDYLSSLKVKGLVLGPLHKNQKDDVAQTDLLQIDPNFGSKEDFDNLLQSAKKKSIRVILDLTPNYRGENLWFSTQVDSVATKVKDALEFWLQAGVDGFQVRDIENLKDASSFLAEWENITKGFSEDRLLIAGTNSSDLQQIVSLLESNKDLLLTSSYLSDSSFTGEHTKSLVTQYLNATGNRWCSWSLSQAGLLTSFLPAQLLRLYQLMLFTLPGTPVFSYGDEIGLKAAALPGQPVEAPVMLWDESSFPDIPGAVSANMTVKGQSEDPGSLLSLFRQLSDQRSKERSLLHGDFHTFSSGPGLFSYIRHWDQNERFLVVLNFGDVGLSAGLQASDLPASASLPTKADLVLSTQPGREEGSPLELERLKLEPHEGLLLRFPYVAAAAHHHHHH
Method: as §1, §2, §3

[4] = target: T2, human CD98 (Homo sapiens, UniProt P08195); experiment: Binding of humanized antibodies to human CD98; details: humanized framework engineered antibodies
T2 sequence (P08195 1-630 isoform P08195-1): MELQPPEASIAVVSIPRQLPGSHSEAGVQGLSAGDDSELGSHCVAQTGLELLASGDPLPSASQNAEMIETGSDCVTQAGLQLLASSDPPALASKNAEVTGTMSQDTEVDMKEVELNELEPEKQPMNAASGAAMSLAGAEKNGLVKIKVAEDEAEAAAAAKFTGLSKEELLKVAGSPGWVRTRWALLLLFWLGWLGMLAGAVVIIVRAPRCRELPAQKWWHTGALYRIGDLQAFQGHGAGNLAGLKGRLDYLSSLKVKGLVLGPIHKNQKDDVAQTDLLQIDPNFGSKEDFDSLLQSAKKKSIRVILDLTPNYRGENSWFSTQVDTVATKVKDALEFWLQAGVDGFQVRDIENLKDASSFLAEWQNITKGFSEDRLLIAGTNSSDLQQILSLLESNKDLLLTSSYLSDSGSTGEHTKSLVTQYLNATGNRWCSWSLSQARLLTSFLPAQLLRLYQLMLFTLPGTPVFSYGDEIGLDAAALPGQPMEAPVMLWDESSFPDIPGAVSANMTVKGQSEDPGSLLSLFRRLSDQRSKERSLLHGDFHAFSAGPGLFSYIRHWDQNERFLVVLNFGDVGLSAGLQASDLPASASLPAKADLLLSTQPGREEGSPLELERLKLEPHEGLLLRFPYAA

B1: huAb101: "heavy chain variable sequence of huAb101 is provided in SEQ ID NO: 106"; "light chain variable sequence ... in SEQ ID NO: 107" (antibody, V domains shown)
VH: EVQLVESGGGLVKPGGSLRLSCATSGFTFIDYYMSWVRQAPGKGLEWLGFIRNKANRYTTEYSASVKGRFTISRDNSKSILYLQMNSLKTEDTAVYYCTRDRPAWFVYWGQGTLVTVSS
VL: DIVMTQTPLSLPVTPGEPASISCKSSQSLLYSSNQKNYLAWYLQKPGQSPQLLIYWASTRESGVPDRFSGSGSGTDFTLKISRVEAEDVGVYYCQQYYSYPYTFGGGTKVEIK
For B1, the “% Aggregates by SEC” value ([1]; conjugation with synthon CZ) was 1.8%, the “DAR by MS” value ([1]; conjugation with synthon CZ) was 4.5 and the “% Aggregates by SEC” value ([1]; conjugation with synthon TX) was 0.3%. The “DAR by MS” value ([1]; conjugation with synthon TX) was 3.5, the ka [2] was 290000 M⁻¹ s⁻¹ and the kd [2] was 0.0018 s⁻¹. The ka [3] was 30000 M⁻¹ s⁻¹, the kd [3] was 0.00067 s⁻¹ and the “binding to human CD98” value [4] was “maintained binding”.

B2: huAb105: "heavy chain variable sequence of huAb105 is provided in SEQ ID NO: 111"; "light chain variable sequence ... in SEQ ID NO: 112" (antibody, V domains shown)
VH: EVQLVESGGGLVQPGGSLRLSCAASGFTFSDYTMAWVRQAPGKGLEWVATIIYSGRGTYYRDAVKGRFTISRDNAKNTLYLQMNSLRAEDTAVYYCARQSDHTYYYWGYFDYWGQGTMVTVSS
VL: DIVMTQTPLSLPVTPGEPASINCKSSQSLLFSGNQKNYLAWYLQKPGQSPQLLIYWASTRQSGVPDRFSGSGSGTDFTLKISRVEAEDVGIYYCQQYYDVPYTFGQGTKLEIK
In the case of B2, the “DAR by MS” value ([1]; conjugation with synthon CZ) is reported as 1.2, the “% Aggregates by SEC” value ([1]; conjugation with synthon TX) is reported as 0.6% and the “DAR by MS” value ([1]; conjugation with synthon TX) is reported as 1.7. It also gave a ka [2] of 140000 M⁻¹ s⁻¹, a kd [2] of 2.4e-05 s⁻¹ and a ka [3] of 38000 M⁻¹ s⁻¹. For the same molecule, the kd [3] was 5.3e-05 s⁻¹ and the “binding to human CD98” value [4] was “maintained binding”.

B3: huAb109: "heavy chain variable sequence of huAb109 is provided in SEQ ID NO: 116"; "light chain variable sequence ... in SEQ ID NO: 117" (antibody, V domains shown)
VH: EVQLVESGGGLVQPGGSLRLSCAASGFTFSDYTMAWVRQAPGKGLEWVATIIYDARGTYYRDAVKGRFTISRDNAKNTLYLQMNSLRAEDTAVYYCARQSDDTYYYWGYFDYWGQGTMVTVSS
VL: DIVMTQTPLSLPVTPGEPASINCKSSQSLLFSGNQKNYLAWYLQKPGQSPQLLIYWASTRQSGVPDRFSGSGSGTDFTLKISRVEAEDVGIYYCQQYYSSPYTFGQGTKLEIK
With B3 the “% Aggregates by SEC” value ([1]; conjugation with synthon CZ) was 2.5%, the “DAR by MS” value ([1]; conjugation with synthon CZ) was 2.1 and the “% Aggregates by SEC” value ([1]; conjugation with synthon TX) was 1.0%. The “DAR by MS” value ([1]; conjugation with synthon TX) was 2.9, the ka [2] was 160000 M⁻¹ s⁻¹ and the kd [2] was 0.00017 s⁻¹. For the same molecule, the ka [3] was 26000 M⁻¹ s⁻¹, the kd [3] was 0.00031 s⁻¹ and the “binding to human CD98” value [4] was “maintained binding”.

B4: huAb107: "heavy chain variable sequence of huAb107 is provided in SEQ ID NO: 114"; "light chain variable sequence ... in SEQ ID NO: 112" (antibody, V domains shown)
VH: EVQLVESGGGLVQPGGSLRLSCAASGFTFSDYTMAWVRQAPGKGLEWVATIIYSGRGTYYRDAVKGRFTISRDNAKNTLYLQMNSLRAEDTAVYYCARQSDDTYYYWGYFDYWGQGTMVTVSS
VL: DIVMTQTPLSLPVTPGEPASINCKSSQSLLFSGNQKNYLAWYLQKPGQSPQLLIYWASTRQSGVPDRFSGSGSGTDFTLKISRVEAEDVGIYYCQQYYDVPYTFGQGTKLEIK
With B4 the “% Aggregates by SEC” value ([1]; conjugation with synthon CZ) was 1.9%, the “DAR by MS” value ([1]; conjugation with synthon CZ) was 2.2 and the “% Aggregates by SEC” value ([1]; conjugation with synthon TX) was 1.5%. The “DAR by MS” value ([1]; conjugation with synthon TX) was 3.1, the ka [2] was 110000 M⁻¹ s⁻¹ and the kd [2] was 3.8e-05 s⁻¹. The ka [3] was 33000 M⁻¹ s⁻¹, the kd [3] was 8.7e-05 s⁻¹ and the “binding to human CD98” value [4] was “maintained binding”.

B5: huAb103: "heavy chain variable sequence of huAb103 is provided in SEQ ID NO: 109"; "light chain variable sequence ... in SEQ ID NO: 107" (antibody, V domains shown)
VH: EVQLVESGGGLVKPGGSLRLSCATSGFTFIDYYMSWVRQAPGKGLEWLGFIRNKAYGYTTEYSASVKGRFTISRDNSKSILYLQMNSLKTEDTAVYYCTRDRPAWFVYWGQGTLVTVSS
VL: DIVMTQTPLSLPVTPGEPASISCKSSQSLLYSSNQKNYLAWYLQKPGQSPQLLIYWASTRESGVPDRFSGSGSGTDFTLKISRVEAEDVGVYYCQQYYSYPYTFGGGTKVEIK
With B5 the “% Aggregates by SEC” value ([1]; conjugation with synthon CZ) was 15.9%, the “DAR by MS” value ([1]; conjugation with synthon CZ) was 4.4 and the “% Aggregates by SEC” value ([1]; conjugation with synthon TX) was 0.9%. For the same molecule, the “DAR by MS” value ([1]; conjugation with synthon TX) was 3.8, the ka [2] was 180000 M⁻¹ s⁻¹ and the kd [2] was 0.00059 s⁻¹. For the same molecule, the ka [3] was 31000 M⁻¹ s⁻¹, the kd [3] was 0.00044 s⁻¹ and the “binding to human CD98” value [4] was “maintained binding”.
